Among the data in publication PMC8561282 (Haematologica, 2021) are Kd values, retold here.

This assay deals with recombinant glyceraldehyde 3-phosphate dehydrogenase (GAPDH) tetramer (UniProt P04406 1-335). Briefly: ITC.

For orientation: Kd means a measure of binding affinity in units of concentration.

Chain of recombinant glyceraldehyde 3-phosphate dehydrogenase (GAPDH) tetramer (P04406 whole entry): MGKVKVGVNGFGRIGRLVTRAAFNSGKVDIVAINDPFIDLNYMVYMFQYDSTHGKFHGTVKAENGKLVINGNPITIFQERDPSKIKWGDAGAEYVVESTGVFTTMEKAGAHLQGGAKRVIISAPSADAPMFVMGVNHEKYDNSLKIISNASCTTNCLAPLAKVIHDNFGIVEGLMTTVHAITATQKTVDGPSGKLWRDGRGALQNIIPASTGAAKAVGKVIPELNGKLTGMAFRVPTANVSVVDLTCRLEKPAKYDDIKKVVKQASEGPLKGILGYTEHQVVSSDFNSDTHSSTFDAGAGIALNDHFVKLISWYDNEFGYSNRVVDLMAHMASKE

MEELQDDYEDMMEENLEQEEYEDPDIPESQ (domain or fragment) [recombinantly expressed AE1 peptide spanning residues 1-30]: the Kd is 44.8 mM.

B1: recombinantly expressed band 3 (AE1) peptide, residues 1-56 (domain or fragment)
chain: MEELQDDYEDMMEENLEQEEYEDPDIPESQMEEPAAHDTEATATDYHTTSHPGTHK
Consider B1, for which the Kd was 2.56 mM.
